One molecule from doi:10.1101/2025.03.21.644525 (bioRxiv, 2025) can be followed below.

For this test, the target named is T1, ARM domain of APC (residues 338-1010), untagged (Mus musculus, UniProt Q61315 338-1010).
T1 sequence (looked up): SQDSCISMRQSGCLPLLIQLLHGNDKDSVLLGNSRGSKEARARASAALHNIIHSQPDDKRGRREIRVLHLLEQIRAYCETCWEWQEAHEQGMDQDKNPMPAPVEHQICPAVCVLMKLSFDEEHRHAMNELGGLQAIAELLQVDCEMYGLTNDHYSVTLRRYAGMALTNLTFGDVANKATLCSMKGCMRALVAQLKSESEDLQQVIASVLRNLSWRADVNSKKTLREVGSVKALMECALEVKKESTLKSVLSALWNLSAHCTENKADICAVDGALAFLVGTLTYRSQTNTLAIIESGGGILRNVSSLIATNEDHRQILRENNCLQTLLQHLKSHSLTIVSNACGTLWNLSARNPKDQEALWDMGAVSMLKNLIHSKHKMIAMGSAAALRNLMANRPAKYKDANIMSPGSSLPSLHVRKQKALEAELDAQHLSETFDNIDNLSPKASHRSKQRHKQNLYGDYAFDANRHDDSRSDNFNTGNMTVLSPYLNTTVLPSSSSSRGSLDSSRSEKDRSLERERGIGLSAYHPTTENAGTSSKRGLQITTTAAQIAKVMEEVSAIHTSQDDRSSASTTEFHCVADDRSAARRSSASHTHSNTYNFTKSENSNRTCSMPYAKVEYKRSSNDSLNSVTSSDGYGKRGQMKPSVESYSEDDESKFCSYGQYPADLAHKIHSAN
The experiment in a line: cryo-EM structure.

B1: KIF3A C-terminal region (residues 481-701, ACT), N-terminal 6His tag (domain or fragment, Mus musculus, UniProt P28741 481-701, looked up)
chain: VIVGGVDLLAKAEEQEKLLEESNMELEERRRRAEQLRKELEEKEQERLDIEEKYTSLQEEAQGKTKKLKKVWTMLMAAKSEMADLQQEHQREIEGLLENIRQLSRELRLQMLIIDNFIPQDYQEMIENYVHWNEDIGEWQLKCVAYTGNNMRKQTPVPDKKERDPFEVDLSHVYLAYTEESLRQSLMKLERPRTSKGKARPKMGRRKRSAKPETVIDSLLQ
For B1, the binding result is given as “binds”.
